Measurements taken from patent US20170253670A1 (Hoffmann-La Roche, published 2017).

What was measured:
[1] = molecular target: T1, MUC1 SEA-avi-His, biotinylated (human, biotin on avi tag); experiment: SPR (ProteOn XPR36), biotinylated MUC1 on NLC chip, TCB as analyte
T1 construct: E. coli derived; also called MUC1 antigen; SEA domain of human MUC1
T1 chain: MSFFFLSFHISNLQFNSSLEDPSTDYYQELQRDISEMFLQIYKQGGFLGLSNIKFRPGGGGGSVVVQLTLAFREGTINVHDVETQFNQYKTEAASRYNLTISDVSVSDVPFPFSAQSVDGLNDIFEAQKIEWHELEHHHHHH
Method: Binding of the produced MUC1-specific TCBs was measured by surface plasmon resonance using a ProteOn XPR36 instrument (Biorad) at 25° C. Biotinylated MUC1 antigen and an unrelated biotinylated antigen were immobilized on NLC chips by neutravidin capture. Immobilization of the antigens was performed as described before. […] Buffer (PBST) was injected along the sixth channel to provide an “in-line” blank for referencing.
Regeneration was performed in horizontal orientation using 10 mM Glycine, pH 1.5 at a flow rate of 100 ul/min for a contact time of 30 s.

[2] = molecular target: T2, human FolR1 on cells (HeLa, SKOV3, HT-29, transfected HEK) (human, UniProt P15328 25-234); experiment: cell-based or functional assay
[3] = molecular target: T2, human FolR1 on cells (HeLa, SKOV3, …); experiment: cell-based or functional assay; remark: listed apart in the source
[4] = molecular target: T2, human FolR1 on cells (HeLa, SKOV3, …); experiment: flow cytometry, HeLa cells
Method: (§1) Target cells as indicated were harvested with Cell Dissociation Buffer, washed with PBS and resuspended in FACS buffer. The antibody staining was performed in a 96well round bottom plate. Therefore 200′000 cells were seeded per well. The plate was centrifuged for 4 min at 400 g and the supernatant was removed. The test antibodies were diluted in FACS buffer and 20 μl of the antibody solution were added to the cells for 30 min at 4° C.

[5] = molecular target: T3, human FolR1 monovalent Fc fusion, biotinylated (human, UniProt P15328 25-233, biotin on C-terminal Avi-tag ; biotin on the C-terminal Avi-tag of the Fc-knob chain (tag not in the letters)); experiment: SPR ProteOn, Fab analyte, antigen on chip
T3 construct: ECD linked to hinge of Fc-knob, co-expressed with Fc-hole; also called huFolR1; huFolR1-Fc; not shown: hinge-Fc(knob)-Avi-tag fused to the ECD, and the co-expressed Fc(hole) chain
Method: Immobilization of antigens (ligand): Recombinant antigens were diluted with PBST (10 mM phosphate, 150 mM sodium chloride pH 7.4, 0.005% Tween 20) to 10 μg/ml, then injected at 30 μl/minute in vertical orientation. Injection of analytes: For ‘one-shot kinetics’ measurements, injection direction was changed to horizontal orientation, two-fold dilution series of purified Fab (varying concentration ranges) were injected simultaneously along separate channels 1-5, with association times of 200 s, and dissociation times of 600 s. Buffer (PBST) was injected along the sixth channel to provide an “in-line” blank for referencing. Association rate constants (kₒₙ) and dissociation rate constants (koff) were calculated using a simple one-to-one Langmuir binding model in ProteOn Manager v3.1 software by simultaneously fitting the association and dissociation sensorgrams. The equilibrium dissociation constant (KD) was calculated as the ratio koff/kₒₙ.

[6] = molecular target: T4, recombinant human BCMA Fc(kih) (human, UniProt Q02223 4-53, biotin on avi-tag where coupled to SA chip ; biotin on the avi-tag of the Fc-knob chain where coupled to the SA chip (tag not in the letters)); experiment: SPR Biacore, binder captured via anti-Fab, BCMA-Fc analyte
T4 construct: also called huBCMA Fc(kih); huBCMA; not shown: human IgG1 hinge-Fc(knob)-avi fused to the ECD, and the unfused Fc(hole) chain
T4 chain: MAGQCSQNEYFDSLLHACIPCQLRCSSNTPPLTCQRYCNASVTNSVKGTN

[7] = molecular target: T5, recombinant murine BCMA Fc(kih) (murine, UniProt O88472 2-49, biotinylated at the avi-tag of the Fc knob chain (not in the letters)); experiment: as above
T5 construct: also called muBCMA Fc(kih); not shown: human IgG1 hinge-Fc(knob)-avi and the unfused Fc(hole) chain
T5 chain: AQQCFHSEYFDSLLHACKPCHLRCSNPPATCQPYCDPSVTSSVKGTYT

[8] = molecular target: T4, recombinant human BCMA Fc(kih); experiment: SPR Biacore, bivalent avidity, BCMA-Fc on chip (Experiment 2)
Method: (§2) Assessment of binding of anti-BCMA antibodies to recombinant BCMA by surface plasmon resonance (SPR) as follow. All SPR experiments were performed on a Biacore T200 at 25° C. with HBS-EP as running buffer (0.01 M HEPES pH 7.4, 0.15 M NaCl, 3 mM EDTA, 0.005% Surfactant P20, Biacore, Freiburg/Germany). The avidity of the interaction between anti-BCMA antibodies and recombinant BCMA Fc(kih) (human, cynomolgus and murine) was determined (Tables 38-40). Biotinylated recombinant human, cynomolgus and murine BCMA Fc(kih) were directly coupled on a SA chip following instructions (Biacore, Freiburg/Germany). The immobilization level ranged from 80 to 120 RU. […] The dissociation was monitored for 180 seconds. Bulk refractive index differences were corrected for by subtracting the response obtained on the reference flow cell. Here, the anti-BCMA antibodies were flown over an empty surface previously activated and deactivated as described in the standard amine coupling kit. Apparent kinetic constants were derived using the Biacore T200 Evaluation Software (v 1.0, Biacore AB, Uppsala/Sweden), to fit rate equations for 1:1 Langmuir binding by numerical integration, despite the bivalency of the interaction for comparison purposes.

[9] = molecular target: T4, recombinant human BCMA Fc(kih); experiment: SPR Biacore, bivalent avidity, BCMA-Fc on chip (Experiment 3)
Method: as §2

[10] = molecular target: T4, recombinant human BCMA Fc(kih); experiment: SPR Biacore, bivalent avidity, BCMA-Fc on chip
Method: as §2

[11] = molecular target: T5, recombinant murine BCMA Fc(kih); experiment: SPR Biacore, bivalent avidity, BCMA-Fc on chip
Method: as §2

[12] = molecular target: T6, cyno FolR1 on transiently transfected HEK cells (cynomolgus); experiment: flow cytometry on HEK cells transiently transfected with cyno FolR1, fluorescently labeled anti-human secondary antibody
T6 construct: whole, on cells; also called cyFolR1
Method: Cross-reactivity of the FolR1 antibodies to cyno FolR1 was addressed on HEK cells transiently transfected with cyFolR1 by flow cytometry. The antibodies were detected with a fluorescently labeled anti-human secondary antibody.
as §1

[13] = molecular target: T2, human FolR1 on cells (HeLa, SKOV3, …); experiment: flow cytometry on HeLa cells, fluorescently labeled anti-human secondary antibody

T2 sequence (P15328 25-234): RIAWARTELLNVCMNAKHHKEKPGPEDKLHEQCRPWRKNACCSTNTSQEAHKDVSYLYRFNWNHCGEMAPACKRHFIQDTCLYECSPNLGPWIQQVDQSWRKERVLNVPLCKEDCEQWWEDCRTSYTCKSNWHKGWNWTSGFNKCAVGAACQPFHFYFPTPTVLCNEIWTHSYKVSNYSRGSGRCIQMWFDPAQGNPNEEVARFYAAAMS
T3 sequence (P15328 25-233 limits assumed): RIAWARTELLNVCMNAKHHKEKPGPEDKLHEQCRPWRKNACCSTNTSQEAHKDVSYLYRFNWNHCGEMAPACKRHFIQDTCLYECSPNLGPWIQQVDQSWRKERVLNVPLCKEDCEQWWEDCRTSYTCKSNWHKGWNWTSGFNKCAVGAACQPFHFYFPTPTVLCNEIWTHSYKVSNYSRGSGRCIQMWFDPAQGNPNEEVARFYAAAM

B1: 58D6 MUC1-specific CLC TCB (bispecific antibody)
heavy 1: not shown
heavy 2: not shown
light: QAVVTQEPSLTVSPGGTVTLTCGSSTGAVTTSNYANWVQEKPGQAFRGLIGGTNKRAPGTPARFSGSLLGGKAALTLSGAQPEDEAEYYCALWYSNLWVFGGGTKLTVLRTQPKAAPSVTLFPPSSEELQANKATLVCLISDFYPGAVTVAWKADSSPVKAGVETTTPSKQSNNKYAASSYLSLTPEQWKSHRSYSCQVTHEGSTVEKTVAPTECS
notes: also called 58D6 TCB
- binding result [1]: binds

B2: 110A5 MUC1-specific CLC TCB (bispecific antibody)
heavy 1: not shown
heavy 2: not shown
light: QAVVTQEPSLTVSPGGTVTLTCGSSTGAVTTSNYANWVQEKPGQAFRGLIGGTNKRAPGTPARFSGSLLGGKAALTLSGAQPEDEAEYYCALWYSNLWVFGGGTKLTVLRTQPKAAPSVTLFPPSSEELQANKATLVCLISDFYPGAVTVAWKADSSPVKAGVETTTPSKQSNNKYAASSYLSLTPEQWKSHRSYSCQVTHEGSTVEKTVAPTECS
notes: also called 110A5 TCB
- binding result [1]: binds

B3: 9D11 TCB S100aA (bispecific antibody, human IgG1, kappa, L234A L235A)
heavy 1: not shown
heavy 2: QVQLVQSGAEVKKPGASVKVSCKASGYTFTSYYMHWVRQAPGQGLEWMGIINPSGGPTSYAQKFQGRVTMTRDTSTSTVYMELSSLRSEDTAVYYCARGDFAWLDYWGQGTLVTVSSASTKGPSVFPLAPSSKSTSGGTAALGCLVKDYFPEPVTVSWNSGALTSGVHTFPAVLQSSGLYSLSSVVTVPSSSLGTQTYICNVNHKPSNTKVDKKVEPKSCDKTHTCPPCPAPEAAGGPSVFLFPPKPKDTLMISRTPEVTCVVVDVSHEDPEVKFNWYVDGVEVHNAKTKPREEQYNSTYRVVSVLTVLHQDWLNGKEYKCKVSNKALGAPIEKTISKAKGQPREPQVCTLPPSRDELTKNQVSLSCAVKGFYPSDIAVEWESNGQPENNYKTTPPVLDSDGSFFLVSKLTVDKSRWQQGNVFSCSVMHEALHNHYTQKSLSLSPGK
light 1: not shown
light 2: QAVVTQEPSLTVSPGGTVTLTCGSSTGAVTTSNYANWVQEKPGQAFRGLIGGTNKRAPGTPARFSGSLLGGKAALTLSGAQPEDEAEYYCALWYSNLWVFGGGTKLTVLSSASTKGPSVFPLAPSSKSTSGGTAALGCLVKDYFPEPVTVSWNSGALTSGVHTFPAVLQSSGLYSLSSVVTVPSSSLGTQTYICNVNHKPSNTKVDKKVEPKSC
- EC50 killing 24 h, SKov-3 [2]: 0.00194 nM

B4: 9D11 FolR1 TCB 1+1 head-to-tail (crossfab) (bispecific antibody, V domains shown)
VH: QVQLVQSGAEVKKPGASVKVSCKASGYTFTSYYMHWVRQAPGQGLEWMGIINPSGGPTSYAQKFQGRVTMTRDTSTSTVYMELSSLRSEDTAVYYCARGDFAWLDYWGQGTLVTVSS
VL: not shown
notes: 1+1 head-to-tail with CD3 CrossFab on the same arm
- EC50 killing 24 h (pM), SKOV3 [3]: 4.73 pM
- EC50 [4]: 44.2 nM

B5: 15H7 Fab (Fab, V domains shown)
VH: QVQLVQSGAEVKKPGASVKVSCKASGYTFTSYYMHWVRQAPGQGLEWMGIINPSGGSTSYAQKFQGRVTMTRDTSTSTVYMELSSLRSEDTAVYYCARNYYLFSTSFDYWGQGTLVTVSS
VL: QAVVTQEPSLTVSPGGTVTLTCGSSTGAVTTSNYANWVQEKPGQAFRGLIGGTNKRAPGTPARFSGSLLGGKAALTLSGAQPEDEAEYYCALWYSNLWVFGGGTKLTVL
notes: as m35
- Kd [5]: 13.4 nM

B6: pSCHLI373 anti-BCMA IgG (antibody, V domains shown)
VH: EVQLVESGGGLVKPGGSLRLSCAASGFSFSNSWMNWVRQAPGKGLEWVGTIRQKTYGGTTDYAAPVKGRFTISRDDSKNTLYLQMNSLKTEDTAVYYCTTGGLFGYWDYWGQGTLVTVSS
VL: QAVVTQEPSLTVSPGGTVTLTCGSSTGAVTTSNYANWVQEKPGQAFRGLIGGTNKRAPGTPARFSGSLLGGKAALTLSGAQPEDEAEYYCALWYSNLWVFGGGTKLTVL
- Kd [6]: 135 nM
- Kd [7]: 724 nM
- Kd [8]: 23 nM
- Kd [9]: 12.1 nM

B7: pSCHLI333 anti-BCMA IgG (antibody, V domains shown)
VH: QVQLVQSGAEVKKPGASVKVSCKASGYMFSSFGMSWVRQAPGQGLEWMGWIYPVGQGTWYAQKFQGRVTMTRDTSTSTVYMELSSLRSEDTAVYYCARVSYPPSHFDYWGQGTLVTVSS
VL: QAVVTQEPSLTVSPGGTVTLTCGSSTGAVTTSNYANWVQEKPGQAFRGLIGGTNKRAPGTPARFSGSLLGGKAALTLSGAQPEDEAEYYCALWYSNLWVFGGGTKLTVL
- Kd [10]: 2.5 nM
- Kd [11]: 19.6 nM

B8: 21A5 IgG (antibody, V domains shown)
VH: not shown
VL: QAVVTQEPSLTVSPGGTVTLTCGSSTGAVTTSNYANWVQEKPGQAFRGLIGGTNKRAPGTPARFSGSLLGGKAALTLSGAQPEDEAEYYCALWYSNLWVFGGGTKLTVL
notes: human IgG1
- EC50 (read off the curve) [12]: ~6 µg/mL

B9: 16D5 IgG (antibody, V domains shown)
VH: not shown
VL: QAVVTQEPSLTVSPGGTVTLTCGSSTGAVTTSNYANWVQEKPGQAFRGLIGGTNKRAPGTPARFSGSLLGGKAALTLSGAQPEDEAEYYCALWYSNLWVFGGGTKLTVL
notes: human IgG1
- EC50 (read off the curve) [12]: ~7 µg/mL

B10: 14E4 IgG (antibody, V domains shown)
VH: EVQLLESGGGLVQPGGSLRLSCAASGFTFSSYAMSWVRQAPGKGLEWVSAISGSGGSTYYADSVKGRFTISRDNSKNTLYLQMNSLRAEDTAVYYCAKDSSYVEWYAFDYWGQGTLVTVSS
VL: EIVLTQSPGTLSLSPGERATLSCRASQSVSSSYLAWYQQKPGQAPRLLIYGASSRATGIPDRFSGSGSGTDSTLTISRLEPEDFAVYYCQQPTSSPITFGQGTKVEIK
notes: human IgG1
- binding result [13]: no binding (tested: 50 µg/ml)
